{
  "source": "patent US5788969A",
  "about": "“Peptides for inducing cytotoxic T lymphocyte responses hepatitis B virus” (priority 1995, dated 1998)",
  "key": {"[1]": {"system": "PBMC from patients and normal donors", "settings": "patients A-1 and A-3, after 2-3 weeks of stimulation"}, "[2]": {"system": "allogeneic target cells partially matched at HLA class I", "assay": "HLA restriction of peptide specific CTL using allogeneic target cells partially matched at HLA class I", "type": "cell-based, human", "settings": "clone B3 (patient A-1) and polyclonal CTL line (patient A-3)", "protocol": "Using patient A-1's HBsAg329-348 specific cell line four clones were derived from cells plated at 1 cell per well (clone B13, B16, B17) or 0.3 cells per well (clone B3). Clone B3 was tested against a panel of allogeneic target cells partially matched with the effectors at the level of HLA class I alleles. […] Since the HLA-A2 subtypes of the patients were not determined, it is not known if the CTL response to the peptides is restricted only by the HLA-A2.1 allele or whether it extends to other HLA-A2 subtypes as well."}},
  "data": [
    {"sequence": "ASARFSWLSLLVPFVQWFVG [HBsAg329-348]", "values": [
      {"measurement": "cytotoxic response of peptide stimulated PBMC against JY cells prepulsed with the peptide", "setting": "[1]", "value": "strong cytotoxic response"},
      {"measurement": "HLA restriction of cytolytic activity of peptide specific CTL", "setting": "[2]", "value": "HLA-A2 restricted"}
    ]}
  ]
}
